Measurements: patent US20240174746A1 (Alector, published 2024)
Numbering of substitutions follows the chain as printed.

B1: TM-54 (antibody, V domains shown)
VH: QVQMQQSGPVLVKPGASVTLSCKASGYTFTTYDLNWVKQRPGQGLEWIGWIYPRGGSTEYNEKFKGKATLTVDTSSSTAYMELHSLTSEDSAVYFCAKYSIYAMDYWGQGTSVTVSS
VL: DVLMTQTPLSLPVSLGDQASISCRSSQSIVHGNGNTYLEWYLQKPGQSPKLLIYKVSNRFSGVPDRFSGSGSGTDFTLKISRVEAEDLGVYYCFQGSHVPWTFGGGTKLEMK
notes: Purified from mouse hybridoma
B2: TM-90 (antibody, V domains shown)
VH: QVHLQQSGPELVKPGASVKLSCKASGYPFTSYDINWVKQRPGQGLEWIGWIYPRDGNAKYNEKFKGKATLTVDTSSSTAYMELHSLTSENSAVYFCARVSDYHGGYGMDYWGQGTSVTVSS
VL: B1 VL with I29F, N58H, S81T, G96N, W101H, M111I
notes: Purified from mouse hybridoma
B3: TM-60 (antibody, V domains shown)
VH: QVQLQQSGPELVKPGASVKLSCKASGYTFTSYDINWVKQRPGQGLEWIGWIYPRDGNTQYIEKLKGKATLTVDTSSSTAYMELHSLTSEDSAVYFCARWIFYAMDYWGQGTSVTVSS
VL: B1 VL with V99L, W101Y, M111I
notes: Purified from mouse hybridoma
B4: TM-61 (antibody, V domains shown)
VH: QVQLQQSGAELAKPGASVKLSCKASGYTFTNYWMNWVKQRPGQGLEWIGYINPSSDYTKYNQNFKDKATLTADKSSSTAYMQLNSLTYEDSAVYYCTRWGGSRSYWYFDVWGAGTTVTVSS
VL: DIVMTQSPSSLSASAGEKVTMSCKSSQSLLNSGNQKNYLAWYQQKPGQSPKLLIYGASTRESGVPDRFTGSGSGTDFTLTISSVQAEDLAVYYCQNDSNYPFTFGGGTKLEMK
notes: Purified from mouse hybridoma
B5: TM-82 (antibody, V domains shown)
VH: QVQLQQSGAELVRPGTSVRVSCKASGYAFTNYLIEWIKQRPGQGLEWIGVINPGSGITDYSEKFKGKARLTADKSSSTAYMQLSSLTSDDSAVYFCTRSPFITTVVADYWGQGTTVTVSS
VL: DVVVTQTPLSLPVSFGDQVSISCRSSQSLANTYGNTYLSWYLHTPGQSPQLLIFGISNRFSGVPDRFSGSGSGTDFTLKISTIKPEDLGVYYCLQGTHPPRTFGGGTKLEMK
notes: Purified from mouse hybridoma
B6: TM-62 (antibody, V domains shown)
VH: QVQLQQPGTELVRPGSSVKLSCKAAGYTFTRYWMHWVKQRPIQGLEWIGNIDPSDSETQYNPKFKDKATLTVDRSSSTAYMHLSSLTSEDSAVYYCARLTTLDYAMDYWGQGTSVTVSS
VL: QIVLTQSPAIMSASPGEKVTISCSASSSVSYMYWYQQKAGSSPKPWIHRTSNLASGVPARFSGSGSGTSYSLTIRSMEAEDAATYYCQQYHSYPPTFGVGTKLELK
notes: Purified from mouse hybridoma
B7: TM-66 (antibody, V domains shown)
VH: EVMLVESGGALVEPGGSLKLSCAASGITFSNYAMSWIRQTPEKRLEWVATIGSVGSYTYYPDSVKGRFTISRDNARNTLYLQMSSLRSEDTAMYYCARQEGSSHFDYWGQGTTLTVSS
VL: DVVVTQTPPSLPVSFGDQVSISCRSSQSLVNSYGKTFLSWYLHKPGQSPQLLIYGISNRFSGVPDRFSGSGSGTVFTLKISTIKPEDLGMYYCLQGTHPPLTFGAGTKLEMK
notes: Purified from mouse hybridoma
B8: TM-65 (antibody, V domains shown)
VH: QVQLQQPGAEFVKPGASVRLSCKTSGYTFTSSWMHWVKQRPGQGLEWIGEINPKNGGTNYNEKFKTKATLTVDKSSNTAYMQLSSLTSEDSAVYYCTIPTWFTYWGQGTLVTVSS
VL: DIQMNQSPSSLSASLGDTITITCRASQNINIWLSWYQQKPGNVPKLLIYKASNLHTGVPSRFSGSGSGTGFTLTISSLQPEDIATYYCLQGQSYPYTFGGGTKLGIK
notes: Purified from mouse hybridoma
B9: TM-76 (antibody, V domains shown)
VH: QVTLKESGPGILQPSQTLSLTCSFSGFSLSTSGMGVSWIRKPSGKGLEWLAHIFWDDDKRYNLFLKSRLTVSKDTSSNQVFLMITSVDTTDTATYYCARMGRQRDYFDYWGQGTSLTVSS
VL: QIILTQSPAIMSASLGEEITLTCSASLSISYVHWYQQKSGASPKLLIYGTSNLASGVPSRFSGSGSGTFYSLTISSVEAEDAADYYCHQWSIYRTFGGGTKLEMK
notes: Purified from mouse hybridoma
B10: TM-63 (antibody, V domains shown)
VH: QVQLQQPGAELVKFGASVKLSCKASGYTFTSFWMHWVKQRPGQGLEWIGNIDPSDSETHYSQKFKDKATLTVDRSSNTAYIQLSSLTSEDSAVYYCARSSNWDNFDYWGQGTTVTVSS
VL: DIVMTQASPSVSVTPGESVSISCRSSQSLLHVNGNTYLYWFLQRPGRSPRLLIYRMSNLASGVPDRFSGSGSGTAFTLRISRVEAEDVGVYYCMQHLQYPFSFGSGTKLEMK
notes: Purified from mouse hybridoma
B11: TM-80 (antibody, V domains shown)
VH: B10 VH with F14P, S31T, S61N, K63E, I81M, T113A
VL: B10 VL with S8A, S12P, N35H, R47Q, R50Q, A75V, A85T, V90I, S102T, M111I
notes: Purified from mouse hybridoma
B12: TM-64 (antibody, V domains shown)
VH: QVQLQQPGAELVKPGASVKLSCKASGYTFTSYWMHWVKQRPGHGLEWIGNIDPSDSDTHYNQNFRGKATLTVDKFSTTAYMHLSSLTSEDSAVYYCARSRGGTYDYGEAMDYWGQGTSVTVSS
VL: B10 VL with S8A, S12P, Q27K, V32T, Y39F, R50Q, Q98E, S102T, M111I
notes: Purified from mouse hybridoma
B13: TM-78 (antibody, V domains shown)
VH: QVQLQQPGAELVKPGASVKLSCKASGYTFTNHWMHWVRQRPGQGLEWIGNIDPSDSDTHYNHKFKDKATLIVDKSSSTAYLQLSSLTSEDSAVFYCARSRGGYYDYGEAMDYWGQGTSVTVSS
VL: B10 VL with S8T, V11I, S12P, Q27K, Y39F, R47Q, R50Q, Q98E, S102T, M111I
notes: Purified from mouse hybridoma
B14: TM-56 (antibody, V domains shown)
VH: QVHLQQSGAELAKPGASVKLSCKASGYTFTSYWMHWVKQRPGQGLEWIGYINPSSGYSKYNQRFKDKATLTADKSSTTAYMHLSSLTYADSAVYYCTREGGSISDWYFDVWGTGTTVTVSS
VL: DIEMTQAAPSVPVTPGESVSISCRSSKSLLQNNGNTYLYWFLQRPGQPPQLLIYRMSNLASGVPDRFSGSGSGTAFTLRISRVEAEDVGVYYCMQHLEYPYTFGGGTKLEIK
notes: Purified from mouse hybridoma
B15: TM-73 (antibody, V domains shown)
VH: QVQLQQPGAELVKPGASVKLSCKASGYTFTSHWMHWVKHRPGQGLEWIGEIDPSDSYTYYNQKFKGKATLTVDKSSSTVYMQLSSLTSEDSAVYYCARNYHGSGPPFAHWGQGTLVTVSS
VL: QIVLTQSPAIMSASPGEKVTLTCSASSGISYIYWYQQRPGSSPRLLIYDTSNLASGVPVRFSGSGSETSYSLTISRLEAEDAATYYCHQWRSYPPTFGGGTKLEIR
notes: Purified from mouse hybridoma
B16: TM-83 (antibody, V domains shown)
VH: QVQLQQPGTELVKPGALVKLSCKASGYTFTTYWIHWVKQRPGQGLEWIGNINPSNGNTKNNERFKTKATLTVDKSSSTAYMQLSSLTSEDSAVYYCVRGDYYGTSYPFWGQGTLVTVSS
VL: DVVMTQTPLSLPVSLGDQASISCRSSQSLVHSNGITYLHWYLQKPGQSPKLLIYKVSNRFSGVPDRFSGSGSGTDFTLKISRVEAEDLGVYFCSQSTHVPYTFGGGTKLEIK
notes: Purified from mouse hybridoma
B17: TM-72 (antibody, V domains shown)
VH: QVQLQQPGAELVKPGTSVKLSCKASGSTFTNYWMHWVMQRPGQGLEWIGNIDPSDSDTHYNQKFKDRAKLTVDKSSSTAYMQLSGLTSEDSAVYYCARSRGGYYDYGEAMDYWGQGTSVTVSS
VL: B14 VL with E3V, Q31H, N32T, Y39F, L42I, P48S, Q50H, M56K, Y101F, G105S
notes: Purified from mouse hybridoma
B18: TM-59 (antibody, V domains shown)
VH: B14 VH with H3Q, T30I, I51V, S58T, Y60N, R63K, T77S, H82Q, A89E, T97A
VL: B14 VL with E3V, Q31H, N32S, L38S, P48S
notes: Purified from mouse hybridoma

Target: T1, cynomolgus (cyno) TMEM106B (cynomolgus, UniProt Q9NUM4 2-274 (human entry))
T1 construct: Full-length cDNA transiently transfected into HEK293 cells
Assay: flow cytometry, HEK293 cells transiently transfected with cyno TMEM106B
Experimental: (§1) For screening of the hybridoma cell culture supernatants, humanTMEM106B-transfected HEK293 cells were aliquoted in 96-well round bottom plates (2×10⁵ cells per well) and incubated with 50 μL of hybridoma cell culture supernatant on ice for 30 minutes. […] Cell sorting was performed on a FACS Canto system (BD Biosciences) or iQue (Intellicyt), with sort gates drawn to exclude dead (i.e., propidium iodide-positive) cells. Median fluorescence intensity (MFI) of anti-mouse-APC MFI on TMEM106B+ HEK293 cells was calculated for each clone, and those displaying a signal of at least 2-fold over background compared to a secondary-antibody only well were taken forward for further analysis and characterization.

fold-change in binding over parental HEK293 cells [fold] | Binder
6.27 | B1
1.32 | B2
2.63 | B3
5.15 | B4
1.49 | B5
2.93 | B6
7.13 | B7
2.15 | B8
4.35 | B9
8.24 | B10
4.33 | B11
7.12 | B12
6.88 | B13
4.49 | B14
1.15 | B15

Target: T2, human TMEM106B (human, UniProt Q9NUM4 2-274)
T2 construct: Full-length cDNA transiently transfected into HEK293 cells; also called huTMEM106B
Assay: flow cytometry, HEK293 cells transiently transfected with human TMEM106B
Experimental: as §1

fold-change in binding over parental HEK293 cells [fold] | Binder
15.6 | B1
1.25 | B2
4.39 | B3
5.07 | B4
11.4 | B6
5.03 | B7
0.42 | B16
4.14 | B8
6.52 | B9
7.12 | B10
9.21 | B11
12.8 | B12
9.6 | B13
3.81 | B17
8.71 | B18
9.35 | B14
2.57 | B15

Target: T3, mouse TMEM106B (mouse, UniProt Q80X71 2-275)
T3 construct: Full-length cDNA transiently transfected into HEK293 cells; also called muTMEM106B; murine TMEM106B
Assay: flow cytometry, HEK293 cells transiently transfected with murine TMEM106B
Experimental: as §1

fold-change in binding over parental HEK293 cells [fold] | Binder
1.17 | B1
0.43 | B3
0.68 | B4
0.88 | B5
0.86 | B6
4.07 | B7
9.91 | B16
1.35 | B8
0.7 | B9
0.62 | B10
0.39 | B11
1.07 | B12
0.99 | B13
0.23 | B17
0.42 | B18
0.47 | B14
0.59 | B15
